Test results: US20250179155A1 (VANDERBILT UNIVERSITY, published 2025)

Experiments:
TcdA1-1832 = target: T1, TcdA1-1832 (Clostridioides difficile strain VPI10463, UniProt P16154 1-1832); test: negative stain EM with single particle averaging
T1 construct: range 1-1832; also called TcdA1-1832 (no CROPs domain)

TcdA-GTD (TcdA1-542) = target: T2, TcdA-GTD (TcdA1-542) (Clostridioides difficile strain VPI10463, UniProt P16154 1-542); test: ELISA-like screen of clone lysates on isolated domains
T2 construct: range 1-542; also called TcdA glucosyltransferase domain

TcdA1-1809 = target: T3, TcdA1-1809 (Clostridioides difficile strain VPI10463, UniProt P16154 1-1809); test: ELISA on isolated toxin domains (domain specificity)
T3 construct: range 1-1809

[1] = target: T4, full-length TcdA (TcdA1-2710) (Clostridioides difficile strain VPI10463, UniProt P16154 1-2710); test: sandwich ELISA on filtered culture supernatant (VPI10463), FIG. 3J
T4 construct: range 1-2710; also called rTcdA; purified, recombinant TcdA

[2] = target: full-length TcdB (TcdB1-2366), VPI10463 (Clostridioides difficile strain VPI10463, UniProt P18177 1-2366); test: cell-based or functional assay
[3] = target: T5, TcdB-CROPs (TcdB1827-2366) (Clostridioides difficile strain VPI10463, UniProt P18177 1827-2366); test: ELISA on isolated toxin domains (domain specificity)
T5 construct: range 1827-2366; also called TcdB CROPS domain; TcdBX-Y

[4] = target: T4, full-length TcdA (TcdA1-2710); test: cell-based or functional assay
[5] = target: T4, full-length TcdA (TcdA1-2710); test: sandwich ELISA, capture A2B10, biotinylated detection A1A6

T2 sequence (P16154 1-542 limits assumed): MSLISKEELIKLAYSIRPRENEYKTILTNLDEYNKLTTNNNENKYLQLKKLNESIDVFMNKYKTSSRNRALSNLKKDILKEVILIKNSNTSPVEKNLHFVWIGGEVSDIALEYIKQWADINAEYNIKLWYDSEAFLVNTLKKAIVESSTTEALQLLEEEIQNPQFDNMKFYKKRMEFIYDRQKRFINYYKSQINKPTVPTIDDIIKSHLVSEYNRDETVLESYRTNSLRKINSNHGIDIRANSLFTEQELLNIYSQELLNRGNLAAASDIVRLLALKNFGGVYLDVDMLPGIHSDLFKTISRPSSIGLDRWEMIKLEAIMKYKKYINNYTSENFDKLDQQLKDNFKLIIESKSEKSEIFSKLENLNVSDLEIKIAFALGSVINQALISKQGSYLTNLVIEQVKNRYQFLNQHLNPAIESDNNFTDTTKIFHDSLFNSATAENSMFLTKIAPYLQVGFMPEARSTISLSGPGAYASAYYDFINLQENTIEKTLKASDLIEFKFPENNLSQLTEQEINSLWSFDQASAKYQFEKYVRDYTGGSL
T4 sequence (P16154 whole entry): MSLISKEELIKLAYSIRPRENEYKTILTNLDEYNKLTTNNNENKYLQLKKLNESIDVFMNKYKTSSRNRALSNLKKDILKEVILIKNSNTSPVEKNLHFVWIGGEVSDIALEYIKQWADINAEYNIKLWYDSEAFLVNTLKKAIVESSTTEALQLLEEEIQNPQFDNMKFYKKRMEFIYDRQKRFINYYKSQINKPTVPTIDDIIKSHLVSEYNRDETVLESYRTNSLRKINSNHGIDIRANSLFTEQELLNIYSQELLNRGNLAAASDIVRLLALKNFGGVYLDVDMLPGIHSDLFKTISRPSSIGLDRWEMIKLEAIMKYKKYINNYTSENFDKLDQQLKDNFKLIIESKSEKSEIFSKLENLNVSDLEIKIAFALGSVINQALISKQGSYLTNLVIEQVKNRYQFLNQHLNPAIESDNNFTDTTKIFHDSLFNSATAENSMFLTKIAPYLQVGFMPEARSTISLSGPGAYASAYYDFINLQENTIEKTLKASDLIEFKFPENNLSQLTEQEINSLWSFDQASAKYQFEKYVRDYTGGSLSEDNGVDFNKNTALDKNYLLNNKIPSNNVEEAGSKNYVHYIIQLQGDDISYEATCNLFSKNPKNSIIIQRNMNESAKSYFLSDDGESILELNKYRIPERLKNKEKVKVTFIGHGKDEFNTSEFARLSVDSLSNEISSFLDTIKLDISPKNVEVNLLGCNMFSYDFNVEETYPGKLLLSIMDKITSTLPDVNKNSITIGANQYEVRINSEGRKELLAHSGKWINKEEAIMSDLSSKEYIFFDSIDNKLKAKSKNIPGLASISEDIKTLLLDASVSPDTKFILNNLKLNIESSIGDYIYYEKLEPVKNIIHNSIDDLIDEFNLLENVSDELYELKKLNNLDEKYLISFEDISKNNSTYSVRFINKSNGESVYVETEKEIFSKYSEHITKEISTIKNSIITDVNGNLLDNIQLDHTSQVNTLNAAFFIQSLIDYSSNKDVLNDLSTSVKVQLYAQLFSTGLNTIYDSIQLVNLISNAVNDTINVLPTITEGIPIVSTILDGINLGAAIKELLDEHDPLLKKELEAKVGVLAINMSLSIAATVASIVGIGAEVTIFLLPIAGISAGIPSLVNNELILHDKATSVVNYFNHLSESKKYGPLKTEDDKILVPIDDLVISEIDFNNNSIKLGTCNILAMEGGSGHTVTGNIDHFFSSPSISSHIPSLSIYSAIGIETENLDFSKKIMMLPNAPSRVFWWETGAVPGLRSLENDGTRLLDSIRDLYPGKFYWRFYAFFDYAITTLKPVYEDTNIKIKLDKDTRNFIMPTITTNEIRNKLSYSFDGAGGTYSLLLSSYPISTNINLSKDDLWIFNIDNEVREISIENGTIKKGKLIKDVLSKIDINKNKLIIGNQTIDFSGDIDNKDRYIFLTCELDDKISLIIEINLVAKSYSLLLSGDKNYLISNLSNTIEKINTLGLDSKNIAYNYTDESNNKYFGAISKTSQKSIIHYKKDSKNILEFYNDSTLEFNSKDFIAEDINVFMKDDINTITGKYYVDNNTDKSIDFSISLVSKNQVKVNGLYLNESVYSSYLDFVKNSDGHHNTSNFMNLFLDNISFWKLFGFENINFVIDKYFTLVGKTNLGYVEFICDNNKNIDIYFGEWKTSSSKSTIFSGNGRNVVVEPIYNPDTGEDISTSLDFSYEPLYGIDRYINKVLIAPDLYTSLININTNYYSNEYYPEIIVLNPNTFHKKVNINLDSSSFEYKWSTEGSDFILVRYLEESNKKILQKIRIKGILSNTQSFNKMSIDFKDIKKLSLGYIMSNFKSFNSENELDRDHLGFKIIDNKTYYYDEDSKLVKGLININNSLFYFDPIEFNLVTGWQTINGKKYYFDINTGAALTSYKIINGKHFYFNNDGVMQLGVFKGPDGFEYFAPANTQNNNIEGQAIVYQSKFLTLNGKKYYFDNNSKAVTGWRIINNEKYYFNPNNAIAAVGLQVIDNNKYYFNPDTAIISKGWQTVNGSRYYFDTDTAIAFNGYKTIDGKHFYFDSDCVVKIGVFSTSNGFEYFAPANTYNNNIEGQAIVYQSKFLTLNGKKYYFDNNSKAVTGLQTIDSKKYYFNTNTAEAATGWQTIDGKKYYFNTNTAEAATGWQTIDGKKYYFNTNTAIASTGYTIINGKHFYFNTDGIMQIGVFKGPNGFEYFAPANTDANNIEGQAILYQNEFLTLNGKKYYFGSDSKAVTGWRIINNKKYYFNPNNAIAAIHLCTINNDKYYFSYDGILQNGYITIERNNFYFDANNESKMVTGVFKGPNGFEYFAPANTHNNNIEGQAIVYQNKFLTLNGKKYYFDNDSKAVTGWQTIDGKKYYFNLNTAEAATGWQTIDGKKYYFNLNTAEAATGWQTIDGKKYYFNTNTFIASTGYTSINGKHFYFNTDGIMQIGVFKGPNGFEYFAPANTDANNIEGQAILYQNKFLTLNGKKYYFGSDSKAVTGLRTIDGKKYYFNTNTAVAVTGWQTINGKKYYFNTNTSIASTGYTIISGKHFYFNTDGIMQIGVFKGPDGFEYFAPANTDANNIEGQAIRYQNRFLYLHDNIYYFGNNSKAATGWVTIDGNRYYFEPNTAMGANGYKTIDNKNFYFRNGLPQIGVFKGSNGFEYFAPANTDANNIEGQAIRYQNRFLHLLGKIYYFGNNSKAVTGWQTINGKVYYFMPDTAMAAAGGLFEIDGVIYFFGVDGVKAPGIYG
T5 sequence (P18177 1827-2366 limits assumed): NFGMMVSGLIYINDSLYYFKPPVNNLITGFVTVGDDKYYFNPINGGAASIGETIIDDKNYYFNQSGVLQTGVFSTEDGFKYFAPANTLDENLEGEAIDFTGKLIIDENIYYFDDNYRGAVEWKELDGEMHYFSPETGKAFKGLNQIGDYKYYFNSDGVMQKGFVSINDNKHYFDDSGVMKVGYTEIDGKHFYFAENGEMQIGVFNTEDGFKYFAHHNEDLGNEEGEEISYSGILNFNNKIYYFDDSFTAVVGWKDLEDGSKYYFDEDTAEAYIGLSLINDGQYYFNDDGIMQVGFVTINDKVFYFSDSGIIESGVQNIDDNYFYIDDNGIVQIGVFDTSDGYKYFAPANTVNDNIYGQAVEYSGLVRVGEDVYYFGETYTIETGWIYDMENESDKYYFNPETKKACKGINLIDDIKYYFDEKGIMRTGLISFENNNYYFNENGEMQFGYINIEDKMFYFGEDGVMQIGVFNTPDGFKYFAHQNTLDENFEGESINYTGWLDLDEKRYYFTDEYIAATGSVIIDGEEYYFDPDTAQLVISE

Binder	binding result (TcdA-GTD (TcdA1-542))	EC50 (nM), TcdA neutralization, T84 cells [4]	EC50 (nM), TcdA neutralization, Vero cells [4]	further results
A1C3 (VHH, also called Nb A1C3) VHH: QVQLQESGGGLVQPGGSLRLSCAASGRIFSIKSMGWYRQAPGKQRELVADITSGGSTNYADSVKGRFTISRDSAWNTVYLQMNSLKPEDTAVYYCRRVVVTPYPDEYEYDYWGQGTQVTVSS	no binding			binding result (TcdA1-1832): binds; binding result (TcdA1-1809): binds; binding result [1]: binds
B2F11 (VHH) VHH: QVQLQESGGGLVQAGGSLTLSCTASGFTFSNYVMSWYRQAPGKEREWVASVSESGQSRTYADSVKGRFTISRDNTNFSVYLQMNNLNSEDTAVYYCNTGSRTYGARYWGQGTQVTVSS				EC50 (nM), TcdB neutralization, Vero cells [2]: 15.6 nM; binding result [3]: binds
B1A11 (VHH) VHH: QVQLQESGGGVVQPGGSLRLTCTSSRSINIYVAMGWYRQAPGKQRERVATAHKDGGTRYSDSVKGRFTISRDDDKNTVYLQMNNLEPGDTAVYYCNAFGSSAWGQGTQVTVSS				EC50 (nM), TcdB neutralization, Vero cells [2]: 38.4 nM; binding result [3]: binds
A2A6 (VHH) VHH: QVQLQESGGGLVQAGGSLRLSCADSGRTFSRYEMGWSRQAPGKEREFVAVINRLGRSTYYADSVKGRFTISRDNAKNTVYLQMNSLKPEDTAVYYCAAGVRLNLPQIPDVIDFWGQGTQVTVSS	no binding	91 nM	1 nM	
A2B5 (VHH) VHH: QVQLQESGGGLVQAGGSLRLSCTPSERTFSAYTMAWYRQPPGKEREFAAGIKWSGSGGITLYADSVKGRFTISGDNAKSTVYLEMNSLKPEDTAVYYCTAGPTVYNPHYWGQGTQVTVSS	no binding		11.1 nM	
A2G6 (VHH) VHH: QVQLQESGGGLVQAGGSLRLSCAASGRTFSRIAMGWFRQVPGKEREFVAGISGNGGTFYTDSVKGRFTISRDNTKNTVYLQMNSLRPEDTAVYYCAADPNYRATYFPYGMDYYGRGTQVTVSS	no binding	9.2 nM	< 1 nM	
A1A6 (VHH, also called Nb A1A6; A1A6-Avi) VHH: QVQLQESGGGSVQAGGSLRLSCAASGFIDDDYAIGWFRQAPGKEREGISCISSSNGKIHYADSVKGRFTISEDIAKKTVYLQMNFLKPEDTAVYYCAAETRGWSYCSGYGWSRYKYWGQGTQVTVSS				binding result [5]: binds
A1F4 (VHH) VHH: QVQLQESGGGLVQAGGSLRLSCTASGRTFTTYNWAWFCQAPGKEREFVAAITGLTRHTYYADSVKGRFTISRDNAKNTVYLQMNSLKPEDTAVYFCAVSSGGDLNERVNYEYWGQGTQVTVSS	no binding			EC50, TcdA neutralization, T84 cells [4]: > 10000 nM
A2H4 (VHH) VHH: QVQLQESGGGLVQPGGSLRLSCAASGSIFSINAMGWYRQAPGKQRELVAKITSGGTTNYADSVKGRFTISRDGAKNTVYLQMNSLKPEDTAVYYCNLPWTSDLGWAVKDYWGQGTQVTVSS	no binding	838 nM	40.9 nM	
A1C4 (VHH) VHH: QVQLQESGGGLVQPGGSLRLSCAASGRSFSINTMGWYRQAPGNKRDMVATITTGGNTNYADSVKGRFTISRDNAKNTVYLQMNSLKPEDTAVYYCRTVVVTPYPDEFEYDYWGQGTQVTVSS	no binding	60.3 nM	2.5 nM	
A2H9 (VHH) VHH: QVQLQESGGGLVQAGGSLRLSCAASGRASSTYVMAWFRQAPGKEREFVAADTWGGAGTYYAPSVKGRFTISRDNAKNMLYLQMNSLKPEDTAAYYCAAGQGRSVTLFQPSTYDYWGQGTQVTVSS	no binding	105 nM	8.7 nM	
A1G4 (VHH) VHH: QVQLQESGGGLVQAGGSLRLSCAVSGRTLNSYAMGWFRQALGKEREFVAGISRAGGMTRYTDSVKGRFTISRDDAKNTVYLQMNSLKPDDTAVYSCAASFALVDSAGAYDYWGQGTQVTVSS	no binding	844 nM	8.5 nM	
A2G5 (VHH) VHH: QVQLQESGGGLVQAGGSLRLSCAVSGRTLSSYAMGWFRQALGKEREFVAGISRGGGMTRYTDSVKGRFTISRDDAKNTVYLQMNSLKPDDTAVYSCAASYALIDMSSAYDYWGQGTQVTVSS	no binding			EC50, TcdA neutralization, T84 cells [4]: > 10000 nM
